This assay deals with SCR^AxCxA, split Renilla luciferase fusion (Arabidopsis thaliana) (UniProt Q9M384). Description: split reporter.
Sequence of UniProt Q9M384 (Q9M384 whole entry, the tested form may be a part): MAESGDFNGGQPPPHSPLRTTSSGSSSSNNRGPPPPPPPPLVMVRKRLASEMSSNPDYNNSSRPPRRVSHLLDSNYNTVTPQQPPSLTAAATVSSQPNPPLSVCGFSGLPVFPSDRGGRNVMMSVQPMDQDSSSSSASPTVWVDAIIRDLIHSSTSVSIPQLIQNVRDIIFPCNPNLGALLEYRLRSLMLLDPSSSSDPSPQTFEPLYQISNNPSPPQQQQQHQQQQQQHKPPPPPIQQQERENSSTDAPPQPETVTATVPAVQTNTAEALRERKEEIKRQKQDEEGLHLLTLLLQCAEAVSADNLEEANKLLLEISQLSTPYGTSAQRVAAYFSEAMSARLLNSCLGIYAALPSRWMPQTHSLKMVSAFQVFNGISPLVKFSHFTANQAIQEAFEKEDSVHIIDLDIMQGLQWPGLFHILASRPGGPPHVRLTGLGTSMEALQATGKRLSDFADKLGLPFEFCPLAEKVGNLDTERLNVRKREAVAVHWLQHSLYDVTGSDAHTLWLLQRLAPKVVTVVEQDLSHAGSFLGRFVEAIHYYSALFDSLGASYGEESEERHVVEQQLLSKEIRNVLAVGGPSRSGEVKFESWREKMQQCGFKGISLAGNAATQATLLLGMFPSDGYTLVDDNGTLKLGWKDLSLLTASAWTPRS

B1: RBR, split Renilla luciferase fusion (natural protein)
chain: MEEVQPPVTPPIEPNGKRSEASLLDICEKVLSLDGSTCDEALKLFTETKRILSASMSNIGSGTREEVERFWFAFILYSVKRLSVRKEADGLSVSGDNEFNLCQILRALKLNIVDFFKELPQFVVKAGSVLGELYGADWENRLQAKEVQANFVHLSLLSKYYKRGFREFFLTYDANAEKNSANSSTYLLDSYRFGWLLFLALRNHAFSRFKDLVTCSNGVVSILAILIIHVPCRFRNFSIQDSSRFVKKGDKGVDLVASLCKIYDASEDELRIVIDKANNLVETILKKKPSPASECQTDKLDNIDPDGLTYFEDLLEETSISTSLITLEKDYYDGKGELDERVFINEEDSLLGSGSLSAGAVNITGVKRKIDALSSPARTFISPLSPHKSPAAKTNGISGATKLAATPVSTAMTTAKWLRTVISPLLPKPSPGLEHFLKSCDRDITNDVTRRAHIILEAIFPNSSLGAQCGGGSLQAVDLMDDIWAEQRRLEACKLYYRVLEAMCKAEAQILHANNLNSLLTNERFHRCMLACSAELVLATHKTITMLFPAVLERTGITAFDLSKVIESFIRHEDSLPRELRRHLNSLEERLLESMVWEKGSSMYNSLIVARPSLALEINQLGLLAEPMPSLDAIAALINFSDGANHASSVQKHETCPGQNGGIRSPKRLCTDYRSILVERNSFTSPVKDRLLALGNVKSKMLPPPLQSAFASPTRPNPGGGGETCAETGINIFFTKINKLAAVRINGMVERLQLSQQIRESVYCFFQHVLAQRTSLLFSRHIDQIILCCFYGVAKISQMSLTFREIIYNYRKQPQCKPLVFRSVYVDALQCRRQGRIGPDHVDIITFYNEIFIPAVKPLLVELGPVRNDRAVEANNKPEGQCPGSPKVSVFPSVPDMSPKKVSAVHNVYVSPLRGSKMDALISHSTKSYYACVGESTHAYQSPSKDLSAINNRLNNSSSNRKRTLNFDAEAGMVSDSMVANSLNLQNQNQNQNGSDASSSGGAAPLKTEPTDS
Turning to B1, the percent of the RBR-SCR interaction (split Renilla luciferase) stood at 11%.

Values taken from paper PMC3500399.
